Test system: cGPS CHO-K1 cells
Assay: Gene targeting (KI assay) of lacZ integration matrix in cGPS CHO-K1 cells, double G418/puromycin selection
Type: cell-based
Details: cGPS CHO-K1, pTV-DS-lacz integration matrix, G418 + puromycin selection
Description: Transfection: On D day, 0.5 μg of the pTV-DS-lacz (SEQ ID NO: 17) is transfected in cGPS CHO-K1 cells by using the PolyFect® reagent from Qiagen. One day after the transfection of the integration matrix (D+1), 1000 μg of the purified DPV15b/I-CreI N75/6× His (SEQ ID NO: 58) meganuclease protein is directly added into transfected cGPS CHO-K1 cells.
Selection: cGPS CHO-K1 cells are transfected with the protocol described above. 24 hours after transfection, the cells are washed and fresh medium supplemented with 0.6 mg/ml of G418 is added. After 10 days of G418 selection, the culture medium is replaced with complete medium supplemented with G418 at 0.6 mg/ml and puromycin at 10 μg/ml. 3 to 4 days later, double resistant clones are visualized through an inverted microscope. At this step, double resistant clones are either stained for lacz expression monitoring or picked up for amplification and molecular characterization. (see section 2.5)
X-gal staining: Culture medium is removed and LacZ-targeted double resistant cGPS CHO-K1 adherent cells are washed once with PBS. 5 ml of fixing buffer (100 mM phosphate buffer, 1 mM MgCl2, 0.5% (v/v) glutaraldehyde (Prolabo, 25% solution)) is added. After 10 min. of incubation on ice, fixing is replaced by 5 ml of washing buffer (100 mM phosphate buffer, 1 mM MgCl2, 0.02% (v/v) NP40). […]

B1: DPV15b/I-CreI N75/6× His: purified recombinant I-CreI N75 meganuclease with cell-penetrating peptide DPV15b fused at N-terminal and 6x histidine tag at C-terminal (protein)
chain: MGAYDLRRRERQSRLRRRERQSRNTKYNKEFLLYLAGFVDGDGSIIAQIKPNQSYKFKHQLSLTFQVTQKTQRRWFLDKLVDEIGVGYVRDRGSVSNYILSEIKPLHNFLTQLQPFLKLKQKQANLVLKIIEQLPSAKESPDKFLEVCTWVDQIAALNDSKTRKTTSETVRAVLDSLSEKKKSSPAAALEHHHHHH
- number of double resistant cell colonies generated: around 30
- selection frequency: 3×10^−4

— patent US8476072B2, “Meganuclease recombination system” (Cellectis, priority 2008, dated 2013)
